{"source": "patent US20090318535A1", "about": "(NEW YORK UNIVERSITY, published 2009)", "binders": {"B1": {"name": "human β-TrCP1 (beta-transducin repeat containing protein 1) (other)", "chain": "MDPAEAVLQEKALKFMCSMPRSLWLGCSSLADSMPSLRCLYNPGTGALTAFQNSSEREDCNNGEPPRKIIPEKNSLRQTYNSCARLCLNQETVCLASTAMKTENCVAKTKLANGTSSMIVPKQRKLSASYEKEKELCVKYFEQWSESDQVEFVEHLISQMCHYQHGHINSYLKPMLQRDFITALPARGLDHIAENILSYLDAKSLCAAELVCKEWYRVTSDGMLWKKLIERMVRTDSLWRGLAERRGWGQYLFKNKPPDGNAPPNSFYRALYPKIIQDIETIESNWRCGRHSLQRIHCRSETSKGVYCLQYDDQKIVSGLRDNTIKIWDKNTLECKRILTGHTGSVLCLQYDERVIITGSSDSTVRVWDVNTGEMLNTLIHHCEAVLHLRFNNGMMVTCSKDRSIAVWDMASPTDITLRRVLVGHRAAVNVVDFDDKYIVSASGDRTIKVWNTSTCEFVRTLNGHKRGIACLQYRDRLVVSGSSDNTIRLWDIECGACLRVLEGHEELVRCIRFDNKRIVSGAYDGKIKVWDLVAALDPRAPAGTLCLRTLVEHSGRVFRLQFDEFQIVSSSHDDTILIWDFLNDPAAQAEPPRSPSRTYTYISR", "notes": "also called Fbp1"}}, "key": {"[1]": {"target": "T1, human BimEL (Bcl-2-Interacting Mediator of cell death, Extra Long isoform) (human, UniProt O43521 1-198, phosphorylated in cells after PMA treatment (Ser69, Ser93, Ser94, Ser98 as the filing reports))", "T1 construct": "198 aa protein, GenBank AAC39593; also called HA-BimEL WT; wild-type BimEL", "test": "co-immunoprecipitation with FLAG resin from HEK293 cells expressing FLAG-tagged F-box proteins, immunoblot for BimEL", "experimental": "For these binding studies, HEK293 cells were transfected with the indicated FLAG-tagged Fbw family F-box protein constructs (in FIG. 1). Twenty-four hours after transfection cells were treated for 3 hours with PMA (20 nM) and the proteasome inhibitor MG132 (10 μM) then harvested and lysed. Whole cell extracts (WCE) were subjected to immunoprecipitation using FLAG resin (α-FLAG), followed by immunoblotting with indicated antibodies (EV: empty vector)."}, "[2]": {"target": "T2, HA-BimEL (S94/98A) mutant (human, UniProt O43521 1-198)", "T2 construct": "HA-tagged, expressed in HEK293", "test": "co-immunoprecipitation with HA resin from transfected HEK293 cells (FIG. 2A)", "experimental": "Twenty-four hours after transfection, cells were treated for 3 hours with PMA and MG 132. Whole cell extracts (WCE) were subjected to immunoprecipitation using HA resin (α-HA) followed by immunoblotting with indicated antibodies."}}}
{"binder": "B1", "values": [{"measurement": "binding result", "setting": "[1]", "result": "binds"}, {"measurement": "binding result", "setting": "[2]", "result": "no binding"}]}
